Experimental data reported in US20260234610, “NOVEL CAS12A PROTEIN, VARIANT OF NOVEL CAS12A PROTEIN, AND USE THEREOF FOR EUKARYOTIC GENOME EDITING” (NSAGE CORP., published 2026).

T1: ID233 Cas12a
T1 chain: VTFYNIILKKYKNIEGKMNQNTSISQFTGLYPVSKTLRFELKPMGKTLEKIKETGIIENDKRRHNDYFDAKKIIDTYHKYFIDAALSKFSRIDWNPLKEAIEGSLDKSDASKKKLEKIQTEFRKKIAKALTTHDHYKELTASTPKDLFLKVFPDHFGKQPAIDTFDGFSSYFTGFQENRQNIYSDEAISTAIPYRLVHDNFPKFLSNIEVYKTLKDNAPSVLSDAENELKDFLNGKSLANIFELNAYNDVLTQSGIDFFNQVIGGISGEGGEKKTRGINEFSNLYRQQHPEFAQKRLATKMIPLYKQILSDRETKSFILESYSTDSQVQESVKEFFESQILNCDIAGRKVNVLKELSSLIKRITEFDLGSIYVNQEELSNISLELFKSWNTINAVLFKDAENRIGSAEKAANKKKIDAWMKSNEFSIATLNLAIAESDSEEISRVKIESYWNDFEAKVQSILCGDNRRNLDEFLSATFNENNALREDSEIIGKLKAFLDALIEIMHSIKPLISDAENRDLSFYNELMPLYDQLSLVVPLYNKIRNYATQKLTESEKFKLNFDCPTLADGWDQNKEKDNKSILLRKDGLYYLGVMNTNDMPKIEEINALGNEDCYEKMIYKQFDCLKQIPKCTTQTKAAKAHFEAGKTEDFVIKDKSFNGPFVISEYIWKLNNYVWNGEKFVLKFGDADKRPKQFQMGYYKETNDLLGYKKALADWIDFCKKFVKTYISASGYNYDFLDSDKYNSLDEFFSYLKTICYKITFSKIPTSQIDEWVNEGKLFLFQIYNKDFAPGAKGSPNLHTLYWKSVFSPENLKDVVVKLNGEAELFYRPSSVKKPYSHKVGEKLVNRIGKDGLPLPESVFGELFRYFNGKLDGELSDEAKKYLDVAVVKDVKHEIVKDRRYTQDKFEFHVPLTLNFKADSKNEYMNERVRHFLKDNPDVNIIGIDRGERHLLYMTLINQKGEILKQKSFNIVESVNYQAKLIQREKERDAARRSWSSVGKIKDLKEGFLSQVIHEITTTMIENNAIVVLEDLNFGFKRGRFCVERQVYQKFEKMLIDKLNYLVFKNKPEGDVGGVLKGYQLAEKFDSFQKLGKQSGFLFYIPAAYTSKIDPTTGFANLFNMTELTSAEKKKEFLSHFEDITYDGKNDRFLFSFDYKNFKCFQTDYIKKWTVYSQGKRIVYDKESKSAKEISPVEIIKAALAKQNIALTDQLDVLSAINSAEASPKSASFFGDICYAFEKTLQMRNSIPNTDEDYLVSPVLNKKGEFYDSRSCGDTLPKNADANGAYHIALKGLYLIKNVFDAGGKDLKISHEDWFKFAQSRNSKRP

T2: ID236 Cas12a
T2 chain: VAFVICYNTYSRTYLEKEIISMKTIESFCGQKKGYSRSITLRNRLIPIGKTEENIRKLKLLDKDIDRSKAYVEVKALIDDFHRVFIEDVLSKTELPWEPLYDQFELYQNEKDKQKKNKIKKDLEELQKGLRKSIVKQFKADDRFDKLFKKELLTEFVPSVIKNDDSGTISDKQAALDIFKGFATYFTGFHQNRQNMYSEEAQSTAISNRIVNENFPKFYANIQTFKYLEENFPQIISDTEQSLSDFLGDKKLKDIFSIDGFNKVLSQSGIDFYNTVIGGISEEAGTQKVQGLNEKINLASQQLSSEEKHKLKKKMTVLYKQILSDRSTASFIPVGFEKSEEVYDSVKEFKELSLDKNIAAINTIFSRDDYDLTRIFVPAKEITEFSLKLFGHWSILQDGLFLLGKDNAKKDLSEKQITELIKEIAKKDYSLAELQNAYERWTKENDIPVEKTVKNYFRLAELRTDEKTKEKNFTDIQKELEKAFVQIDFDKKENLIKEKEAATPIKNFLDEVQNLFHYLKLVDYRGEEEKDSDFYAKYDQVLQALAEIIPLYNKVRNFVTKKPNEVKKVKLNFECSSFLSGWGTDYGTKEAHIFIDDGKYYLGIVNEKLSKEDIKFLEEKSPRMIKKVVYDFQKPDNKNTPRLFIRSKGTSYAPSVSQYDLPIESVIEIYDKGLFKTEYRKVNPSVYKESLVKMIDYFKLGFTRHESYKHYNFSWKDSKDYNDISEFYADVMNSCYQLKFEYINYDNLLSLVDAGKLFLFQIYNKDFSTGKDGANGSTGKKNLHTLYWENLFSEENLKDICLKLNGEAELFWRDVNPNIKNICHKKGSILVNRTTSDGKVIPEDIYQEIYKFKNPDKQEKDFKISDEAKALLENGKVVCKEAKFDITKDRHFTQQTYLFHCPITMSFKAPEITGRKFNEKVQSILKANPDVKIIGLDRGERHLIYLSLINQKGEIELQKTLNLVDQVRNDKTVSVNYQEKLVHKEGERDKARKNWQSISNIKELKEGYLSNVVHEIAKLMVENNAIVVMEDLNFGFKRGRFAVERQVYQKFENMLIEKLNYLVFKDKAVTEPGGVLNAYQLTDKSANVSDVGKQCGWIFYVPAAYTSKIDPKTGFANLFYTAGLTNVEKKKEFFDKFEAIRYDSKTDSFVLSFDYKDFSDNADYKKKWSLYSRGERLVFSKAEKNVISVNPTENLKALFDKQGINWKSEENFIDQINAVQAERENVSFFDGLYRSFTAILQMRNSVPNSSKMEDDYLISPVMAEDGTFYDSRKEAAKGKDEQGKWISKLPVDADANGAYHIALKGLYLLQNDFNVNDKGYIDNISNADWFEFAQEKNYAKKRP


Assays:
Test in all cases: cell_activity; PAM TTTV/TTTN; RNP in HEK293T
Conditions in all cases: tags: NLS, His6
ID218 Cas12a = molecular target: ID218 Cas12a
Procedure: (§1) To confirm the in vivo gene editing activity of the CRISPR enzymes according to Experimental Example 4.1, the following experiments were performed: [0474] 1) CRISPR/Cas12a complexes were assembled according to Experimental Example 1.5 using CRISPR enzymes prepared according to Experimental Example 4.1 and guide RNAs. [0475] 2) The CRISPR/Cas12a complexes assembled in 1) were transfected into HEK293T cells according to Experimental Example 1.8, and gene editing activity was measured.

ID233 Cas12a = molecular target: T1, ID233 Cas12a
Procedure: as §1

ID236 Cas12a = molecular target: T2, ID236 Cas12a
Procedure: as §1

| Binder | activity (ID218 Cas12a) [% indel] | activity (ID233 Cas12a) [% indel] | activity (ID236 Cas12a) [% indel] |
| --- | --- | --- | --- |
| 218 crRNA MTAP ; MTAP target (ssRNA ; dsDNA) RNA: UAAUUUCUACUAAGUGUAGAUGCCCCAAUAAUCCCCACAUGUCA DNA 1: GCCCCAATAATCCCCACATGTCA DNA 2: TGACATGTGGGGATTATTGGGGC | 90.4 |  |  |
| 233 crRNA MTAP ; MTAP target (ssRNA ; dsDNA) RNA: AAAAUUUCUACUCUUGUAGAUGCCCCAAUAAUCCCCACAUGUCA DNA 1: GCCCCAATAATCCCCACATGTCA DNA 2: TGACATGTGGGGATTATTGGGGC |  | 14.8 |  |
| 236 crRNA MTAP ; MTAP target (ssRNA ; dsDNA) RNA: UAAAUUUCUACUGUUGUAGAUGCCCCAAUAAUCCCCACAUGUCA DNA 1: GCCCCAATAATCCCCACATGTCA DNA 2: TGACATGTGGGGATTATTGGGGC |  |  | 17 |
| 233 crRNA DYRK1A ; DYRK1A target (ssRNA ; dsDNA) RNA: AAAAUUUCUACUCUUGUAGAUGAAGCACAUCAAGGACAUUCUAA DNA 1: GAAGCACATCAAGGACATTCTAA DNA 2: TTAGAATGTCCTTGATGTGCTTC |  | 12.2 |  |
| 236 crRNA DYRK1A ; DYRK1A target (ssRNA ; dsDNA) RNA: UAAAUUUCUACUGUUGUAGAUGAAGCACAUCAAGGACAUUCUAA DNA 1: GAAGCACATCAAGGACATTCTAA DNA 2: TTAGAATGTCCTTGATGTGCTTC |  |  | 5.2 |
| 218 crRNA DYRK1A ; DYRK1A target (ssRNA ; dsDNA) RNA: UAAUUUCUACUAAGUGUAGAUGAAGCACAUCAAGGACAUUCUAA DNA 1: GAAGCACATCAAGGACATTCTAA DNA 2: TTAGAATGTCCTTGATGTGCTTC | 71 |  |  |
